Assay results from US20130143238A1 (BAXTER HEALTHCARE S A, published 2013).

Key:
[1] = target: T1, human cluster designation 34 (CD34) antigen on the surface of TF-1 cells (human, UniProt P28906 32-385); test: cell capture assay, conditioned medium of HEK293T cells, TF-1 cells, luminescence
T1 construct: whole, on cells; native on TF-1 cells; also called CD34 membrane-protein; CD34-receptor
T1 sequence (looked up): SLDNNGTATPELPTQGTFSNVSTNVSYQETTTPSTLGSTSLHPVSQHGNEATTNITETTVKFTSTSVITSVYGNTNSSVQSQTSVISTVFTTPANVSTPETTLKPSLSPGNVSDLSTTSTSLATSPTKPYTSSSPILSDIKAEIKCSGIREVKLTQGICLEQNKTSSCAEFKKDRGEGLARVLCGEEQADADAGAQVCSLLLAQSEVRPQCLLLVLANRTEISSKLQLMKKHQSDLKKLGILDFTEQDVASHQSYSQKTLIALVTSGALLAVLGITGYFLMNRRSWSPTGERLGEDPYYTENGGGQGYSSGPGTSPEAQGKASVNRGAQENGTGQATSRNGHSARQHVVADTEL
Protocol: (§1) 96-well microplates (Maxisorp, Nalge Nunc) were coated with polyclonal anti-mouse IgG antibody developed in goats (Jackson Immuno Research, Suffolk, UK) or in sheep (Baxter Oncology, Halle, Germany). After washing with PBS, either conditioned medium containing the anti-CD34 antibody was added and incubated overnight at 4° C. or purified antibody was diluted in DMEM medium (Invitrogen/Gibco, Lofer, Austria) supplemented with 10% FCS (PAA Laboratories, Pasching, Austria) and 1% penicillin/streptomycin (Invitrogen/Gibco) prior to incubation. Subsequently, plates were washed with PBS and TF-1 cells (ATCC CRL-2003) were added at a cell density of 1×10⁵ cells/mL. TF-1 cells were cultivated in RPMI medium (Invitrogen/Gibco). The bound anti-CD34 antibody captures the TF-1 cells by binding to the CD34 present on the surface of the cells. After washing steps to remove the unbound cells, the Cell Titer-Glo reagent from the CellTiter-Glo Luminescent Cell Viability Assay Kit (Promega, Mannheim, Germany) was added. This reagent gives a luminescence signal proportional to the number of viable cells based on an ATP-dependent luciferase reaction (FIG. 3).
The expression of mouse IgG was first verified by the Easy Titer Mouse IgG Assay (Pierce) according to the manufacturer's instructions. To test the functionality of the antibodies the supernatants were tested in the cell capture assay. […]

[2] = target: T1, human cluster designation 34 (CD34) …; test: cell capture assay, dilution series of purified antibody, TF-1 cells
Protocol: as §1
Furthermore, in a large scale expression experiment 23 triple flasks (Nunclon Surface, Nalge Nunc) and one cell factory (Nalge Nunc) were co-transfected and incubated for three weeks. […]

B1: recombinant anti-CD34 antibody transiently expressed in HEK293T cells (co-transfection of pCMV-9C5lc and pCMV-9C5hc) (antibody, V domains shown)
VH: EVQLQQSGPELVKPGASVKISCKASGYSFIGYFMNWVMQSHGRSLEWIGRINPYNGYTFYNQKFKGKATLTVDKSSSTAHMELRSLASEDSAVYYCARHFRYDGVFYYAMDYWGQGTSVTVSS
VL: QLVLTQSSSASFSLGASAKLTCTLSSQHSTFTIEWYQQQPLKPPKYVMDLKKDGSHSTGDGVPDRFSGSSSGADRYLSISNIQPEDEATYICGVGDTIKEQFVYVFGGGTKVTVLG
notes: Tested as conditioned medium and as purified antibody, captured on plates coated with anti-mouse IgG; also called anti-CD34 9C5 antibody; transiently expressed recombinant anti-CD34 antibody
binding result [1]: binds

B2: hybridoma-derived anti-CD34 antibody secreted by the mouse hybridoma cell line 9C5/9069 (antibody, V domains shown)
VH: B1 VH
VL: B1 VL
notes: also called hybridoma supernatant
binding result [2]: binds
